Source: PMC2432501, “Binding to the Minor Groove of the Double-Strand, Tau Protein Prevents DNA from Damage by Peroxidation”

Tests used:
tau23 [1] = biological target: T1, tau23 (human, UniProt P10636-2 1-352); assay: EMSA; marked shift from [protein]/[DNA] 1/2; 2.5 uM DNA; 20 mM Tris pH 7.2, 50 mM NaCl, 0.5 mM DTT, 1 mM MgCl2, 0.5 mM EDTA, room temperature 20-30 min; native PAGE in 1xTBE (20% gel at 4 C, or 8% for the 26 bp assay); details: protein: recombinant; blunt
tau23 [2] = biological target: T1, tau23; assay: EMSA; retardation depends on tau/DNA ratio; 20 mM Tris pH 7.2, 50 mM NaCl, 0.5 mM DTT, 1 mM MgCl2, 0.5 mM EDTA, room temperature 20-30 min; native PAGE in 1xTBE (20% gel at 4 C, or 8% for the 26 bp assay); details: protein: recombinant; 5' overhang 1 nt at both ends
tau23 [3] = biological target: T1, tau23; assay: AFM; protein/DNA 8/1; particle 8.54 nm vs 7.82 nm tau alone; 20 mM Tris pH 7.2, 50 mM NaCl, 0.5 mM DTT, 1 mM MgCl2, 0.5 mM EDTA, room temperature 20-30 min; native PAGE in 1xTBE (20% gel at 4 C, or 8% for the 26 bp assay); details: protein: recombinant; 5' overhang 1 nt at both ends
tau23 [4] = biological target: T1, tau23; assay: EMSA; 20 mM Tris pH 7.2, 50 mM NaCl, 0.5 mM DTT, 1 mM MgCl2, 0.5 mM EDTA, room temperature 20-30 min; native PAGE in 1xTBE (20% gel at 4 C, or 8% for the 26 bp assay); details: protein: recombinant; 5' overhang 1 nt at both ends
tau23 [5] = biological target: T1, tau23; assay: EMSA; shift from [tau]/[bp] 1/100, greatest at 1/3; 20 mM Tris pH 7.2, 50 mM NaCl, 0.5 mM DTT, 1 mM MgCl2, 0.5 mM EDTA, room temperature 20-30 min; native PAGE in 1xTBE (20% gel at 4 C, or 8% for the 26 bp assay); details: protein: recombinant; 5' overhang 1 nt at both ends

T1 sequence (P10636 other isoform, or with tags, fused parts or gaps): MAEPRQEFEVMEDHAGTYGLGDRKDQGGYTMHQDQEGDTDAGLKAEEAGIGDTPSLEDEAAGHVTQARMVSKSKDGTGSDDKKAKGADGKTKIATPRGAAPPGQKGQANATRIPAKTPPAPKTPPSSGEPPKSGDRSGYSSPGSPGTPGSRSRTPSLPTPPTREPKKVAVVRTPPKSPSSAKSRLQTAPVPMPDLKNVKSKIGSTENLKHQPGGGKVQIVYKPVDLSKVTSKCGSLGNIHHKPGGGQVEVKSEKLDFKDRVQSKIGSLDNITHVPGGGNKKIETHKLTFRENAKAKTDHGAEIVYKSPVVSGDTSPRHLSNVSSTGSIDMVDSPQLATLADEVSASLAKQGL

B1: 20 bp DNA (dsDNA)
DNA 1: AACGAGAAGCGCGATCACAT
DNA 2: ATGTGATCGCGCTTCTCGTT
B1: binds (tau23 [1]).

B2: 14 bp DNA (dsDNA)
DNA 1: ACCGTGCATAAATAA
DNA 2: CTTATTTATGCACGG
B2: binds (tau23 [2]).

B3: 12 bp DNA (dsDNA)
DNA 1: AGTGCATAAATAA
DNA 2: CTTATTTATGCAC
B3: no binding (tau23 [3]).

B4: 13 bp DNA (dsDNA)
DNA 1: ACGTGCATAAATAA
DNA 2: CTTATTTATGCACG
B4: binds (tau23 [4]).

B5: 26 bp DNA (dsDNA)
DNA 1: ACTCCGTGCATAAATAATAGGCACTCG
DNA 2: CCGAGTGCCTATTATTTATGCACGGAG
B5: binds (tau23 [5]).
